± gives the standard error. Fewer inactive variants are shown than the library holds.
B1: glmS ribozyme (parent)
chain: AUAAAAGCGCCAGAACUACAGAAAUGUAGUUGACGAGGAGGAGGUUUAUCGAAUUUUCGGCGGAUGCCUCCAAA

Columns and labels:
Conditions in all cases: with glucosamine-6-phosphate
[1] = variants of: B1; assay: self-cleavage kobs at 40 uM GlcN6P; higher = faster cleavage; RNA array
Summary of the method: (§1)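 On sequenced MiSeq chips, barcoded ribozyme variants were made in situ by E. coli RNA polymerase and followed at 37 °C through a hybridised Cy3 probe. Glucosamine-6-phosphate was flowed in at 40 μM to 10 mM in HEPES/KCl/Mg(OAc)2 buffer. Exponential fits to normalised per-tile medians gave kobs, and weighted Michaelis–Menten fits gave kcat and KM.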

[2] = variants of: B1; assay: self-cleavage kobs at 160 uM GlcN6P; higher = faster cleavage; RNA array
Summary of the method: as §1

[3] = variants of: B1; assay: self-cleavage kobs at 640 uM GlcN6P; higher = faster cleavage; RNA array
Summary of the method: as §1

[4] = variants of: B1; assay: self-cleavage kobs at 2500 uM GlcN6P; higher = faster cleavage; RNA array
Summary of the method: as §1

[5] = variants of: B1; assay: self-cleavage kobs at 10000 uM GlcN6P; higher = faster cleavage; RNA array
Summary of the method: as §1

Variant	self-cleavage kobs at 40 uM GlcN6P [1] [s⁻¹]	self-cleavage kobs at 160 uM GlcN6P [2] [s⁻¹]	self-cleavage kobs at 640 uM GlcN6P [3] [s⁻¹]	self-cleavage kobs at 2500 uM GlcN6P [4] [s⁻¹]	self-cleavage kobs at 10000 uM GlcN6P [5] [s⁻¹]
A53G U54A	0.000851 ± 0.00024	0.00267 ± 0.00057	0.0083 ± 0.0014	0.0106 ± 0.0043	0.0724 ± 0.027
C34A G37U	< 1e-05	< 1e-05	–	< 1e-05	–
U30G A36U C50G C67U	0.000201 ± 3.9e-05	–	–	–	0.00055 ± 0.00011
C11G A12U	< 1e-05	–	–	< 1e-05	–
A14C G29A C61G	< 1e-05	–	–	–	< 1e-05
C11U A33G U69A	< 1e-05	–	–	–	< 1e-05
A6U C8G G38C G43A	< 1e-05	–	–	–	< 1e-05
A42G G63A	< 1e-05	< 1e-05	< 1e-05	< 1e-05	< 1e-05
A6C C50G C61G	0.000119 ± 3.4e-05	0.000251 ± 7.8e-05	0.00102 ± 0.00025	0.000289 ± 0.0001	0.000343 ± 6.1e-05
G43U A64U	< 1e-05	–	< 1e-05	< 1e-05	< 1e-05
C58A G59U C68U	< 1e-05	–	–	–	–
C34U U65C	< 1e-05	< 1e-05	< 1e-05	< 1e-05	< 1e-05
U56A U69C	0.000222 ± 5.9e-05	0.000288 ± 6e-05	0.000693 ± 0.00019	0.000572 ± 0.00015	0.00286 ± 0.00081
A6G A15C A53G	< 1e-05	–	–	6.25e-05 ± 2e-05	–
A6C G60U	< 1e-05	< 1e-05	< 1e-05	< 1e-05	< 1e-05
G41U G60U	< 1e-05	< 1e-05	< 1e-05	–	< 1e-05
G7A G35C G59A C67G	< 1e-05	< 1e-05	< 1e-05	< 1e-05	–
C34A G59U	< 1e-05	< 1e-05	< 1e-05	< 1e-05	< 1e-05
G40C U56A G62C	< 1e-05	–	–	< 1e-05	–
A6G G60C	< 1e-05	< 1e-05	< 1e-05	< 1e-05	–

Variant	self-cleavage kobs at 40 uM GlcN6P [1] [s⁻¹]	self-cleavage kobs at 160 uM GlcN6P [2] [s⁻¹]	self-cleavage kobs at 640 uM GlcN6P [3] [s⁻¹]	self-cleavage kobs at 2500 uM GlcN6P [4] [s⁻¹]	self-cleavage kobs at 10000 uM GlcN6P [5] [s⁻¹]
U45G G63U	< 1e-05	< 1e-05	< 1e-05	< 1e-05	< 1e-05
G7U U45G C71A	< 1e-05	–	–	< 1e-05	< 1e-05
G32U A36C C68A	< 1e-05	–	–	–	< 1e-05
G32A G44C C71G	< 1e-05	–	–	–	< 1e-05
C8A C50G	5.03e-05 ± 1.7e-05	0.000112 ± 3.3e-05	0.00101 ± 0.00048	9.84e-05 ± 2.6e-05	–
G40A G43A	< 1e-05	–	< 1e-05	< 1e-05	< 1e-05
C8G G43U	< 1e-05	–	< 1e-05	< 1e-05	–
U31G C34U A42G	< 1e-05	< 1e-05	< 1e-05	< 1e-05	< 1e-05
C10U A14G A15G G43A U45G A52G A64G	< 1e-05	< 1e-05	–	–	< 1e-05
G32U G37U A39G	< 1e-05	–	–	< 1e-05	–
A36C G43U	< 1e-05	–	< 1e-05	< 1e-05	< 1e-05
A33U C34U	< 1e-05	< 1e-05	< 1e-05	–	< 1e-05
G13A A14U C50G C68U	8.53e-05 ± 1.7e-05	–	0.000187 ± 4.7e-05	0.000455 ± 0.00016	0.000103 ± 1.5e-05
G13U G29A G44U U55G	< 1e-05	–	–	–	< 1e-05
U56A U65G	3.75e-05 ± 1.4e-05	–	0.000348 ± 0.00011	–	0.00196 ± 0.00027
C10A G41C	< 1e-05	< 1e-05	< 1e-05	< 1e-05	< 1e-05
C8U G35U A39U G43U	< 1e-05	–	< 1e-05	–	–
C11G U31C C34G U46A	< 1e-05	–	–	–	< 1e-05
U55C U56A	0.000256 ± 4.6e-05	–	–	0.0131 ± 0.0031	0.0148 ± 0.0032
C8U C61U	< 1e-05	< 1e-05	< 1e-05	< 1e-05	< 1e-05
